B1: Recombinant human TRIM21 PRYSPRY domain (His-tagged, expressed in E. coli BL21 (DE3)) (receptor)
chain: VHITLDPDTANPWLILSEDRRQVRLGDTQQSIPGNEERFDSYPMVLGAQHFHSGKHYWEVDVTGKEAWDLGVCRDSVRRKGHFLLSSKSGFWTIWLWNKQKYEAGTYPQTPLHLQVPPCQVGIFLDYEAGMVSFYNITDHGSLIYSFSECAFTGPLRPFFSPGFNDGGKNTAPLTLCPLNIGSQGSTDY
modifications: biotinylated when used as bait for biopanning and in the ELISAs (sites not given)
notes: Purified on Ni-NTA and by gel filtration; Analyte in SPR; biotinylated form used in biopanning and ELISA; also called PRYSPRY domain of TRIM21; bait protein; not shown: N-terminal His-tag of the pQE-2 vector

Molecular target: B1
Test: SPR as in Example 1.10, TRIM21 PRYSPRY domain;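 note: antibodies amine-coupled to a GLC chip on a ProteON XPR36, TRIM21 flowed at five concentrations in PBS with 0.05% Tween-20, kinetics fitted to a Langmuir 1:1 model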

Row | Binder | Kd [pM] | koff [s⁻¹] | kon [M⁻¹ s⁻¹]
1 | Fc region SN 1 of FIG. 13 (IgG1 256P/433S/434H/440G) (other) PCPAPELLGGPSVFLFPPKPKDTLMISRPPEVTCVVVDVSHEDPEVKFNWYVDGVEVHNAKTKPREEQYNSTYRVVSVLTVLHQDWLNGKEYKCKVSNKALPAPIEKTISKAKGQPREPQVYTLPPSRDELTKNQVSLTCLVKGFYPSDIAVEWESNGQPENNYKTTPPVLDSDGSFFLYSKLTVDKSRWQQGNVFSCSVMHEALSHHYTQKGLSLSPGK | 55 | 0.000388 | 7.05e+06
2 | Fc region SN 46 of FIG. 13 (IgG1 256P/433V/434R) (other) PCPAPELLGGPSVFLFPPKPKDTLMISRPPEVTCVVVDVSHEDPEVKFNWYVDGVEVHNAKTKPREEQYNSTYRVVSVLTVLHQDWLNGKEYKCKVSNKALPAPIEKTISKAKGQPREPQVYTLPPSRDELTKNQVSLTCLVKGFYPSDIAVEWESNGQPENNYKTTPPVLDSDGSFFLYSKLTVDKSRWQQGNVFSCSVMHEALVRHYTQKSLSLSPGK | 169 | 0.000124 | 730000
3 | Fc region SN 9 of FIG. 13 (IgG1 256P/433V/434H) (other) PCPAPELLGGPSVFLFPPKPKDTLMISRPPEVTCVVVDVSHEDPEVKFNWYVDGVEVHNAKTKPREEQYNSTYRVVSVLTVLHQDWLNGKEYKCKVSNKALPAPIEKTISKAKGQPREPQVYTLPPSRDELTKNQVSLTCLVKGFYPSDIAVEWESNGQPENNYKTTPPVLDSDGSFFLYSKLTVDKSRWQQGNVFSCSVMHEALVHHYTQKSLSLSPGK | 95.7 | 0.000481 | 5.03e+06
4 | Fc region SN 10 of FIG. 13 (IgG1 256P/433V/434H/440R) (other) PCPAPELLGGPSVFLFPPKPKDTLMISRPPEVTCVVVDVSHEDPEVKFNWYVDGVEVHNAKTKPREEQYNSTYRVVSVLTVLHQDWLNGKEYKCKVSNKALPAPIEKTISKAKGQPREPQVYTLPPSRDELTKNQVSLTCLVKGFYPSDIAVEWESNGQPENNYKTTPPVLDSDGSFFLYSKLTVDKSRWQQGNVFSCSVMHEALVHHYTQKRLSLSPGK | 892 | 0.00046 | 515000
5 | Fc region SN 2 of FIG. 13 (IgG1 256P/433S/434H) (other) PCPAPELLGGPSVFLFPPKPKDTLMISRPPEVTCVVVDVSHEDPEVKFNWYVDGVEVHNAKTKPREEQYNSTYRVVSVLTVLHQDWLNGKEYKCKVSNKALPAPIEKTISKAKGQPREPQVYTLPPSRDELTKNQVSLTCLVKGFYPSDIAVEWESNGQPENNYKTTPPVLDSDGSFFLYSKLTVDKSRWQQGNVFSCSVMHEALSHHYTQKSLSLSPGK | 156 | 0.000727 | 4.66e+06
6 | Fc region SN 92 of FIG. 13 (IgG1 256A/436F/440M) (other) PCPAPELLGGPSVFLFPPKPKDTLMISRAPEVTCVVVDVSHEDPEVKFNWYVDGVEVHNAKTKPREEQYNSTYRVVSVLTVLHQDWLNGKEYKCKVSNKALPAPIEKTISKAKGQPREPQVYTLPPSRDELTKNQVSLTCLVKGFYPSDIAVEWESNGQPENNYKTTPPVLDSDGSFFLYSKLTVDKSRWQQGNVFSCSVMHEALHNHFTQKMLSLSPGK | 3680 | 0.0145 | 3.94e+06
7 | Fc region SN 32 of FIG. 13 (IgG1 256P/433T/434R) (other) PCPAPELLGGPSVFLFPPKPKDTLMISRPPEVTCVVVDVSHEDPEVKFNWYVDGVEVHNAKTKPREEQYNSTYRVVSVLTVLHQDWLNGKEYKCKVSNKALPAPIEKTISKAKGQPREPQVYTLPPSRDELTKNQVSLTCLVKGFYPSDIAVEWESNGQPENNYKTTPPVLDSDGSFFLYSKLTVDKSRWQQGNVFSCSVMHEALTRHYTQKSLSLSPGK | 498 | 0.00053 | 1.06e+06

Molecular target: T1, Wildtype IgG1 Fc (reference in the SPR table of Example 4) (human, UniProt P0DOX5 230-449 = IgG part, limits assumed)
T1 construct: also called wildtype Fc
Test: SPR as in Example 1.10, TRIM21 PRYSPRY domain;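 note: antibodies amine-coupled to a GLC chip on a ProteON XPR36, TRIM21 flowed at five concentrations in PBS with 0.05% Tween-20, kinetics fitted to a Langmuir 1:1 model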

Row | Binder | Kd [pM] | koff [s⁻¹] | kon [M⁻¹ s⁻¹]
8 | B1 | 126000 | 0.0812 | 647000

Molecular target: B1
Test: ELISA, 0.125 µg/ml biotinylated PRYSPRY domain

Row | Binder | binding result
9 | modified Fc (other, also called PN04-90 Fc) Fc polypeptide (CH2-CH3): PCPAPELLGGPSVFLFPPKPKDTLMISRPPEVTCVVVDVSHEDPEVKFNWYVDGVEVHNAKTKPREEQYNSTYRVVSVLTVLHQDWLNGKEYKCKVSNKALPAPIEKTISKAKGQPREPQVYTLPPSRDELTKNQVSLTCLVKGFYPSDIAVEWESNGQPENNYKTTPPVLDSDGSFFLYSKLTVDKSRWQQGNVFSCSVMHEALTRHFTQKILSLSPGK | binds
